In experiment [1] the target is phosphorylated Smad2 (His-tagged, full length, from Sf9 cells co-infected with Alk5 T204D virus) (UniProt Q15796). Briefly: HTRF competition against 500 nM biotinylated FAST peptide. For orientation: Time-resolved FRET reads energy transfer from a long-lived donor to a nearby acceptor.
The target is the same in experiment [2]. Briefly: HTRF, biotin-FAST binding to Smad2-P, no inhibitor.
Experiment [3] has as its target unphosphorylated Smad2 (His-tagged, full length) (UniProt Q15796). Briefly: microplate solid-phase assay; Smad2 0.25 ug/well; biotinylated GST-CBP 1:2000.
For experiment [4], the target named is T1, Phosphorylated Smad2/4 Complex (Homo sapiens, UniProt Q15796). Description: microplate solid-phase assay; Smad2P4 0.125 ug/well; biotinylated GST-CBP 1:2000, duplicate well.
Experiment [5] concerns the target unphosphorylated Smad2 (His-tagged, full length) (UniProt Q15796). Briefly: microplate solid-phase assay; Smad2 0.50 ug/well; biotinylated GST-CBP 1:500, duplicate well.
Experiment [6] concerns the target T1, Phosphorylated Smad2/4 Complex. Briefly: microplate solid-phase assay; Smad2P4 0.50 ug/well; biotinylated GST-CBP 1:1000.
For experiment [7] the target is unchanged. Description: microplate solid-phase assay; Smad2P4 0.125 ug/well; biotinylated GST-CBP 1:1000, duplicate well.
Experiment [8] has the same target. Briefly: microplate solid-phase assay; Smad2P4 0.25 ug/well; biotinylated GST-CBP 1:1000, duplicate well.
The target is the same in experiment [9]. Description: microplate solid-phase assay; Smad2P4 0.25 ug/well; biotinylated GST-CBP 1:1000.
For experiment [10], the target named is unphosphorylated Smad2 (His-tagged, full length) (UniProt Q15796). Description: microplate solid-phase assay; Smad2 0.25 ug/well; biotinylated GST-CBP 1:1000, duplicate well.
Experiment [11] has as its target T1, Phosphorylated Smad2/4 Complex. Description: microplate solid-phase assay, biotinylated GST-CBP, streptavidin-AP.
Experiment [12] shares this target. Description: microplate solid-phase assay; Smad2P4 0.50 ug/well; biotinylated GST-CBP 1:2000, duplicate well.
The target of experiment [13] is unphosphorylated Smad2 (His-tagged, full length) (UniProt Q15796). Briefly: microplate solid-phase assay; Smad2 0.50 ug/well; biotinylated GST-CBP 1:1000.
The target in experiment [14] is T1, Phosphorylated Smad2/4 Complex. Description: microplate solid-phase assay; Smad2P4 0.25 ug/well; biotinylated GST-CBP 1:2000, duplicate well.
The target in experiment [15] is unphosphorylated Smad2 (His-tagged, full length) (UniProt Q15796). Description: microplate solid-phase assay; Smad2 0.25 ug/well; biotinylated GST-CBP 1:500.
Experiment [16] concerns the target T1, Phosphorylated Smad2/4 Complex. Description: microplate solid-phase assay; Smad2P4 0.50 ug/well; biotinylated GST-CBP 1:2000.
The target is the same in experiment [17]. Description: microplate solid-phase assay; Smad2P4 0.125 ug/well; biotinylated GST-CBP 1:2000.
For experiment [18] the target is unchanged. Briefly: microplate solid-phase assay; Smad2P4 0.50 ug/well; biotinylated GST-CBP 1:1000, duplicate well.
For experiment [19] the target is unchanged. Briefly: microplate solid-phase assay; Smad2P4 0.25 ug/well; biotinylated GST-CBP 1:2000.
Experiment [20] concerns the target unphosphorylated Smad2 (His-tagged, full length) (UniProt Q15796). Description: microplate solid-phase assay; Smad2 0.25 ug/well; biotinylated GST-CBP 1:2000, duplicate well.
Experiment [21] shares this target. Briefly: microplate solid-phase assay; Smad2 0.50 ug/well; biotinylated GST-CBP 1:500.
Experiment [22] shares this target. Briefly: microplate solid-phase assay; Smad2 0.50 ug/well; biotinylated GST-CBP 1:2000, duplicate well.
The target in experiment [23] is T1, Phosphorylated Smad2/4 Complex. Briefly: microplate solid-phase assay; Smad2P4 0.25 ug/well; biotinylated GST-CBP 1:500, duplicate well.
Experiment [24] has the same target. Briefly: microplate solid-phase assay; Smad2P4 0.50 ug/well; biotinylated GST-CBP 1:500, duplicate well.
Experiment [25] shares this target. Briefly: microplate solid-phase assay; Smad2P4 0.50 ug/well; biotinylated GST-CBP 1:500.
Experiment [26] has as its target unphosphorylated Smad2 (His-tagged, full length) (UniProt Q15796). Description: microplate solid-phase assay; Smad2 0.50 ug/well; biotinylated GST-CBP 1:2000.
For experiment [27] the target is unchanged. Briefly: microplate solid-phase assay; Smad2 0.25 ug/well; biotinylated GST-CBP 1:1000.
The target is the same in experiment [28]. Briefly: microplate solid-phase assay; Smad2 0.50 ug/well; biotinylated GST-CBP 1:1000, duplicate well.
For experiment [29], the target named is T1, Phosphorylated Smad2/4 Complex. Briefly: microplate solid-phase assay; Smad2P4 0.25 ug/well; biotinylated GST-CBP 1:500.
For experiment [30] the target is unchanged. Briefly: microplate solid-phase assay; Smad2P4 0.125 ug/well; biotinylated GST-CBP 1:500, duplicate well.
The target of experiment [31] is unphosphorylated Smad2 (His-tagged, full length) (UniProt Q15796). Briefly: microplate solid-phase assay; Smad2 0.25 ug/well; biotinylated GST-CBP 1:500, duplicate well.
Experiment [32] addresses T1, Phosphorylated Smad2/4 Complex. Description: microplate solid-phase assay; Smad2P4 0.125 ug/well; biotinylated GST-CBP 1:1000.
The target is the same in experiment [33]. Briefly: microplate solid-phase assay; Smad2P4 0.125 ug/well; biotinylated GST-CBP 1:500.

Bounds are passed on as bounds.

As usually defined, the IC50 is the concentration that inhibits the measured activity by half. High values mean weaker potency in that assay, low ones greater potency in that assay. As for “GST-trx-FAST fusion protein (FAST SIM peptide aptamer on thioredoxin scaffold) (from UniProt O75593 327-350) (designed binder)”, in experiment [1], the IC50 was determined as 250 nM.

The substance “biotinylated FAST peptide (24 mer, Smad interaction motif of human FAST) (from UniProt O75593 327-350)” registered an Average Normalized Counts in experiment [2] of 1880 counts.

As to “biotinylated GST-CBP protein (from UniProt P08515 1-218)”, the relative light units (RLU) in experiment [3] was 6600 RLU; in experiment [4] it was 85100 RLU; in experiment [5] it was 26300 RLU; in experiment [6] it was 306000 RLU; in experiment [7] it was 82300 RLU; in experiment [8], 182000 RLU. For the same substance, the relative light units (RLU) came to 181000 RLU in experiment [9]; 7830 RLU in experiment [10]; 285000 RLU in experiment [12]; 23000 RLU in experiment [13]; 162000 RLU in [14]; 11100 RLU in experiment [15]. The relative light units (RLU) was 303000 RLU in [16]; 82200 RLU in experiment [17]; 323000 RLU in experiment [18]; 176000 RLU in experiment [19]; 4340 RLU in experiment [20]; 26600 RLU in [21]. For the same substance, the relative light units (RLU) in experiment [22] was 11000 RLU; in [23], 191000 RLU; in experiment [24] it was 236000 RLU; in experiment [25], 358000 RLU; in experiment [26] it was 11300 RLU; in [27] it was 6680 RLU. Moreover, the relative light units (RLU) in [28] turned out to be 23500 RLU; in experiment [29], 204000 RLU; in [30] it was 74300 RLU; in experiment [31], 8900 RLU; in [32], 82900 RLU; in experiment [33], 72000 RLU. For the same substance, the fold more CBP bound than by an equivalent amount of unphosphorylated Smad in experiment [11] is more than 30 fold.

The values above are taken from patent US6998240B2, “Screen for selective inhibitors or activators of Smad protein function” (Wisconsin Alumni Research Foundation, priority 2001, dated 2006).
